Assays:
[1] = tested on: DriD WT (Caulobacter crescentus); assay: fluorescence polarization; conditions: FP: 25 mM Tris-HCl pH 7.5, 150 mM NaCl, 2.5% glycerol, 100 uM ssDNA, temperature not stated; cryo-EM: 20 mM Tris-HCl pH 8, 5 mM MgCl2, 100 mM NaCl, 1 mM bME …
[2] = tested on: DriD(G18K-A20K) (Caulobacter crescentus); assay: fluorescence polarization; conditions: FP: 25 mM Tris-HCl pH 7.5, 150 mM NaCl, 2.5% glycerol, 100 uM ssDNA, temperature not stated; cryo-EM: 20 mM Tris-HCl pH 8, 5 mM MgCl2, 100 mM NaCl, 1 mM bME …
[3] = biological target: C. crescentus DriD (wild type) (C. crescentus); assay: fluorescence polarisation; DriD (WT or mutant) first bound to fluoresceinated target DNA with 100 μM ssDNA, then increasing αCTD titrated in; 25 mM Tris-HCl pH 7.5, 150 mM NaCl, 2.5 % glycerol; apparent Kd; three technical replicates

Kd [3] [nM]	Substance	Kd [1] [nM]	Kd [2] [nM]
	ATACGACAGTAACTGTCGTAT (double strand) [F-DriD target DNA]	7.1	9.2
30000	C. crescentus α subunit CTD (α residues 161–248) (domain or fragment)		

From paper PMC12340889
